Results reported in PMC6778029.

B1: SMN2exon7 RNA (ssRNA)
RNA: GGUUUUAGACAAAAUCAAAAAGAAGGAAGGUGCUCACAUUCCUUAAAUUAAGGA

Experiments:
hnRNPG wild-type [1] = biological target: T1, hnRNPG wild-type (Homo sapiens, UniProt P38159 1-391); test: limited proteolysis protection
hnRNPG RRMmut = hnRNPG RRMmut (Homo sapiens, UniProt P38159 1-391, K9A;F11A;R49A;F51A;F53A); test: limited proteolysis protection
hnRNPG wild-type [2] = biological target: T1, hnRNPG wild-type; test: spin-down

Sequence of hnRNPG RRMmut (P38159 whole entry K9A/F11A/R49A/F51A/F53A): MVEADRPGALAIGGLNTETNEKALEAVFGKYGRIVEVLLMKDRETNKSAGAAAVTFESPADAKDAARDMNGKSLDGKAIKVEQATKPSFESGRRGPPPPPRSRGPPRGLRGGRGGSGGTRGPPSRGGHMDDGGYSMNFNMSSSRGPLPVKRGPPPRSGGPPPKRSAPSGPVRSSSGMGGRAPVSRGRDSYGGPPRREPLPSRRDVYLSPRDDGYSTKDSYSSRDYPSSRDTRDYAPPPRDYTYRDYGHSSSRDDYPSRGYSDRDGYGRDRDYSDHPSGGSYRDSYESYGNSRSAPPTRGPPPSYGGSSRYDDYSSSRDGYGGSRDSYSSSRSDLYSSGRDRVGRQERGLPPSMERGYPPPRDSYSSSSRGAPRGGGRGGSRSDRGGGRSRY
T1 sequence (P38159 whole entry): as the sequence (P38159 whole entry K9A/F11A/R49A/F51A/F53A) above, with A9K, A11F, A49R, A51F, A53F counted along it

Binder	binding result (hnRNPG wild-type [1])	binding result (hnRNPG RRMmut)	binding result (hnRNPG wild-type [2])
B1	binds	no binding	
GGGUACGACGGAUAUCGUGGGGGGGGAAAUUGCUUUCGGUUCCGACUCUG (structured_RNA) [WEc RNA]	binds	no binding	
AAUGUGAAGGACUUUCGUAACGGAAGUAAUUCAA (structured_RNA) [MALAT1 hairpin 2515-A]		no binding	binds
AAUGUGAAGGACUUUCGUAACGGAAGUAAUUCAA (structured_RNA, m6A at position 11) [MALAT1 hairpin 2515-m6A]		no binding	binds
